Assay results as given in patent publication US11780902B1, “Receptor/histidine kinase fusion constructs and uses thereof” (priority 2018, dated 2023).

B1: PhoQTrzPhoR: Mg^2+ responsive PhoQ receptor fused to TrzPhoR at the D position, SEQ ID NO:40 (protein)
chain: MPGRSKWYRRWRPRSLQARQLLAASLSLVAFLALAGYALDVAFADTAEKNLRERLKNYASAYAANIDFVRDGSLYIGGQPPDPRFDVPGGGLYVEVVRPDESWTSMSAEGPNIPHGRMLEPRQEEFIGPLEMTQIDGSLGQLYRYGLGVSYVEREHGGEIPYTIYVMEDARSMGAQLRVFRGAVWFYLGSAGVVLLVLQAFILQWSLRPLRRVINELTKVQRGEIQRMSEQHPRELEPLTDSINAFIESVKQLEGARRNFFANVSHELRTPLTVLQGYLEMMNEQPLEGAVREKALHTMREQTQRMEGLVKQLLTLSKIEAAPTHLLNEKVDVPMMLRVVEREAQTLSQKKQTFTFEIDNGLKVSGNEDQLRSAISNLVYNAVNHTPEGTHITVRWQRVPHGAEFSVEDNGPGIAPEHIPRLTERFYRVDKARSRQTGGSGLGLAIVKHAVNHHESRLNIESTVGKGTRFSFVIPERLIAKNSD
modifications: Fusion protein
B2: TrzPhoR: coiled coil based fusion of Trz (Trg chemotactic receptor/EnvZ histidine kinase fusion) to PhoR histidine kinase, SEQ ID NO:2 (protein)
chain: MNTTPSQRLGFLHHIRLVPLFACILGGILVLFALSSALAGYFLWQADRDQRDVTAEIEIRTGLANSSDFLRSARINMIQAGAASRIAEMEAMKRNIAQAESEIKQSQQGYRAYQNRPVKTPADEALDTELNQRFQAYITGMQPMLKYAKNGMFEAIINHESEQIRPLDNAYTDILNKAVKIRSTRANQLAELAHQRTRLGGMFMIGAFVLALVMTLITFMVLRRIVIRPLQHAAQRIEKIASGDLTMNDEPAGRNEIGRLSRHLQHMAAGVKQLEGARRNFFANVSHELRTPLTVLQGYLEMMNEQPLEGAVREKALHTMREQTQRMEGLVKQLLTLSKIEAAPTHLLNEKVDVPMMLRVVEREAQTLSQKKQTFTFEIDNGLKVSGNEDQLRSAISNLVYNAVNHTPEGTHITVRWQRVPHGAEFSVEDNGPGIAPEHIPRLTERFYRVDKARSRQTGGSGLGLAIVKHAVNHHESRLNIESTVGKGTRFSFVIPERLIAKNSD

Key:
[1] = tested on: PhoB responsive promoter driving a β-galactosidase reporter gene; assay type: cell-based, E. coli
[2] = tested on: PhoB responsive promoter driving a β-galactosidase reporter gene; details: E. coli BW23423; maltose control vs ribose; X-Gal; functional = off without ligand, on with ligand
[3] = tested on: plant pho promoter: luciferase reporter gene; test: Luciferase reporter in transgenic Arabidopsis, circuit RBP→TrzPhoR→PhoBVP64, exposure to ribose; assay type: in vivo; details: 0 hours vs 24 hours after exposure to ribose
Description: FIG. 9A and FIG. 9B. Imaging of a luciferase gene reporter in transgenic Arabidopsis with the signaling circuit Ribose Binding Protein (RBP)→TrzPhoR→PhoBVP64 activating a plant pho promoter: luciferase reporter gene FIG. 9A. Four transgenic Arabidopsis lines at 0 hours (no exposure to ribose) top panel and 24 hours after exposure to ribose bottom panel. FIG. 9B. Quantification of luciferase activity from FIG. 9A.
Because the ground state of a histidine kinase is such that the kinase is active, “kinase on” and the predominate signaling phenotype seen in non-functional fusions is “kinase on,” the inventors reasoned that the valine at the D position is essential in maintaining the “kinase off” state in the absence of ligand dependent signaling. Fusions where the D position valine is replaced by alanine, glycine (the two hydrophobic amino acids smaller than valine) or a methionine (the D position residue of PhoR) results in constitutive activation (FIG. 8). E. coli has 10 HKs, including EnvZ, with HAMP domains adjacent to the HK coiled coil (FIG. 8). EnvZ is the only HK with a valine in the A/D position. There are 4 other amino acids, glutamate, isoleucine, leucine and threonine that occupy the A/D position in the 9 other E. coli HKs with a HAMP/HK coiled coil A/D overlap. […]

Molecule | Mg^2+ signaling (β-galactosidase activity) [1] | signaling phenotype of the fusion (ribose inducible β-galactosidase activity) [2] | function in the plant detector system (luciferase activity) [3]
B1 | increase in Mg^2+ signaling |  | 
B2 |  | functional | highly functional
